T1: cynomolgus monkey CD19 on peripheral blood B cells (cynomolgus monkey (Macaca fascicularis), UniProt A0A2K5W8L9 20-557)
T1 construct: whole, on cells; also called cynomolgus monkey B cells
T1 sequence: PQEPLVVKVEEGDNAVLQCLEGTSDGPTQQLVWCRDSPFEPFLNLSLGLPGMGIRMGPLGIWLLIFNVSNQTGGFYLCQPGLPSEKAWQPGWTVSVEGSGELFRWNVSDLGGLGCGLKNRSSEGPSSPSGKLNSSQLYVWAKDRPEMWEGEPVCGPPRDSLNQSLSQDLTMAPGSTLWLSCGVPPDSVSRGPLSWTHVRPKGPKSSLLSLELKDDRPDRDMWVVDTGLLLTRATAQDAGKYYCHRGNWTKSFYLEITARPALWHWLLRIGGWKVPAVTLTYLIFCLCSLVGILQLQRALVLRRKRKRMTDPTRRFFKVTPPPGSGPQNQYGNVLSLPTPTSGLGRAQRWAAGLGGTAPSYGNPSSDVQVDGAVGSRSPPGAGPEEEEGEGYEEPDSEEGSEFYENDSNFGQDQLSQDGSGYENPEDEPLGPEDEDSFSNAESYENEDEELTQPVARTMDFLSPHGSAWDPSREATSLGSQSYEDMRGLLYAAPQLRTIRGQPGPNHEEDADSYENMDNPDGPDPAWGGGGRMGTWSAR

T2: monkey CD19, full length, on HEK293T cells (monkey, UniProt P15391 20-556 (human entry))
T2 construct: The entry holds the signal peptide; also called HEK293T-monkey CD19
T2 chain: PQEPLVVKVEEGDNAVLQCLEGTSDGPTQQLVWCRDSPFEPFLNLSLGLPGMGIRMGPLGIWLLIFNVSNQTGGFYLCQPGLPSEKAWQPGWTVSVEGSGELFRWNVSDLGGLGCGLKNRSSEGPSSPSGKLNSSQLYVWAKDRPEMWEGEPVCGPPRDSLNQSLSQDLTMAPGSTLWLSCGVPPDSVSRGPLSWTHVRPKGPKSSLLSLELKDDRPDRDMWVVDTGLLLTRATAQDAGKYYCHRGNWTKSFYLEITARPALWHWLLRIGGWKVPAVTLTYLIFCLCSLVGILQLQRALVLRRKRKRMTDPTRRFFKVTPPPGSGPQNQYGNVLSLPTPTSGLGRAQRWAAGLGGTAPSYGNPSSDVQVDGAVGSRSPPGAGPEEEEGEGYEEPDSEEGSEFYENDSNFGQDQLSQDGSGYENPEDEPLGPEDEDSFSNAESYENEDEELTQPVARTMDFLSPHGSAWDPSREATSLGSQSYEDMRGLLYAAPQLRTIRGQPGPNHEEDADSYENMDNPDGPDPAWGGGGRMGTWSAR

T3: human CD19-his protein (human, UniProt P15391 20-291)
T3 construct: also called recombinant human CD19-His; human CD19 protein; not shown: His tag
T3 sequence (looked up): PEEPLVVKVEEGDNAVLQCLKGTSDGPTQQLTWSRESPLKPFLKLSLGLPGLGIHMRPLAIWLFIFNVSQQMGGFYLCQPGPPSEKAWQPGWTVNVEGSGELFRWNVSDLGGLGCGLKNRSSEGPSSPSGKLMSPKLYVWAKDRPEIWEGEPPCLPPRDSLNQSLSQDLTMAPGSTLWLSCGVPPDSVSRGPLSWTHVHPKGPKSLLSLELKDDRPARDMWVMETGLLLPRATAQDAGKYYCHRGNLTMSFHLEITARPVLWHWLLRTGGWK


Assays:
[1] = biological target: T1, cynomolgus monkey CD19 on peripheral …; assay: FACS on cynomolgus monkey PBMC, gated on CD20-positive B cells
Protocol: Monkey peripheral blood mononuclear cells were extracted from fresh cynomolgus monkey peripheral blood (purchased from Shanghai Medicilon Inc.) according to Ficoll-Paque Plus (purchased from GE Healthcare, Cat. No. 171440-02). […] The cells were incubated at room temperature for 1 h. […] The cells were incubated at room temperature for 30 min in the dark, washed 5 times, gently resuspended in PBS, and assayed and analyzed by FACS (FACS Canto™, purchased from BD Biosciences), in which CD20 was used as a marker for B cells.

[2] = biological target: T2, monkey CD19, full length, on HEK293T …; assay: FACS on HEK293T-monkey CD19 cells
Protocol: (§1) For suspension cells Raji, the medium supernatant was discarded by direct centrifugation, and the cell pellet was washed twice with PBS. After cell counting of the cells obtained in the last step, the cell pellet was resuspended to 2×10⁶ cells/mL with a blocking solution [PBS+2% (w/w) BSA] and added into a 96-well FACS reaction plate at 50 μL/well. […] After the plate was centrifuged and washed 5 times with a PBS buffer, the results were assayed and analyzed by FACS (FACS Canto™, purchased from BD Biosciences). Data analysis was performed by software (CellQuest) to obtain the mean fluorescence intensity (MFI) of the cells. Then, analysis was performed by software (GraphPad Prism8), data were fitted, and EC₅₀ values were calculated.
(§2) HEK293T-monkey CD19 cells were subjected to the FACS assay and data analysis according to the method described in Example 4.2.

monkey CD19-his protein = monkey CD19-his protein (monkey); assay: ELISA, monkey CD19 coated
Protocol: After incubation for 2 h at 37° C., the plate was washed 3 times with PBS. […] After incubation for 1 h at 37° C., the plate was washed 5 times with PBS. A TMB substrate was added at 50 μL/well. After incubation at room temperature for 10 min, a stop solution (1.0 N HCl) was added at 50 μL/well. The OD450 nm values were read on an ELISA microplate reader (Multimode Plate Reader, EnSight, purchased from Perkin Elmer). […] The negative control antibody mIgG1 was an antibody against hen egg lysozyme, anti-hel-mIgG1 (purchased from Biointron, Cat. No. B118301), and the data in the table were OD450 nm values.
IgG control was mIgG1, S003-NB151-89 was a clone that is selected from a library constructed by peripheral blood collected from Alpaca immunized by human CD19-His and can bind to a monkey CD19-His protein, and was used as a positive control, and the data in the table were OD450 nm values.

human CD19-his protein = biological target: T3, human CD19-his protein; assay: SPR (Biacore), antibody captured on Protein A chip, human CD19-His as analyte, 1:1 Langmuir model
Protocol: The anti-human CD19 antibody was captured using a Protein A chip (GE Healthcare; 29-127-558). The sample and running buffer was HBS-EP+(10 mM HEPES, 150 mM NaCl, 3 mM EDTA, 0.05% surfactant P20) (GE Healthcare; BR-1006-69). The flow cell was set at 25° C. The sample block was set at 16° C. Both were pretreated with the running buffer. In each cycle, first, the test antibody was captured using the Protein A chip, and then a single concentration of CD19 antigen protein was injected. The association and dissociation processes of the antibody with the antigen protein were recorded, and finally, the chip was regenerated using Glycine pH 1.5 (GE Healthcare; BR-1003-54). The association was determined by injecting different concentrations of recombinant human CD19-His in the solution and maintaining for 240 s, wherein the flow rate was 30 μL/min, and the protein was diluted in a 1:1 dilution ratio from 200 nM (see detailed results for actual concentrations tested) to obtain 5 concentrations in total. The dissociation phase was monitored for up to 600 s and triggered by switching from the sample solution to the running buffer. The surface was regenerated by washing with 10 mM glycine solution (pH 1.5) at a flow rate of 30 μL/min for 30 s. The difference in bulk refractive index was corrected by subtracting the responses obtained from the goat anti-human Fc surface. Blank injections were also subtracted (double reference). To calculate the apparent KD and other kinetic parameters, the Langmuir 1:1 model was used.

[3] = biological target: T2, monkey CD19, full length, on HEK293T …; assay: FACS titration on HEK293T-monkey CD19 cells
Protocol: as §1, §2

Row | Binder | proportion of positive cells to B cells (%) at 1 nM [1] | proportion of positive cells to B cells (%) at 10 nM [1] | proportion of positive cells to B cells (%) at 100 nM [1] | EC50 [2] | maximum mean fluorescence intensity [2] | OD450 at 0.0001 nM (monkey CD19-his protein) | OD450 at 0.001 nM (monkey CD19-his protein) | OD450 at 0.01 nM (monkey CD19-his protein) | OD450 at 0.10 nM (monkey CD19-his protein) | OD450 at 1.00 nM (monkey CD19-his protein) | OD450 at 10.00 nM (monkey CD19-his protein) | OD450 at 100.00 nM (monkey CD19-his protein) | Kd (human CD19-his protein) | koff (human CD19-his protein) | kon (human CD19-his protein) | EC50 (read off the curve) [3]
1 | FMC63.26-mIgG1 (antibody, V domains shown, Humanized FMC63; also called FMC63-L2H6) VH: EVTLKESGPVLVKPTETLTLTCTVSGFSLPDYGVSWIRQPPGKALEWLAVIWGSETTYYNSALKSRLTISKDTSKSQVVLTMTNMDPVDTATYYCAKHYYYGGSYAMDYWGQGTTVTVSS VL: DIQMTQSPSSLSASVGDRVTITCRASQDISKYLNWYQQKPGGAVKLLIYHTSRLHSGVPSRFSGSGSGTDYTLTISSLQPEDFATYYCQQGNTLPYTFGGGTKVEIKR | 3% | 6% | 39% | 20.3 nM | 38500 MFI | 0.05 OD450 | 0.05 OD450 | 0.05 OD450 | 0.05 OD450 | 0.05 OD450 | 0.06 OD450 | 0.1 OD450 | 0.346 nM | 3.36e-05 s⁻¹ | 97200 M⁻¹ s⁻¹ | –
2 | FMC63.25-mIgG1 (antibody, V domains shown, Humanized FMC63; also called FMC63-L2H5) VH: EVTLKESGPVLVKPTETLTLTCTVSGFSLSDYGVSWIRQPPGKALEWLAVIWGSETTYYNSALKSRLTISKDTSKSQVVLTMTNMDPVDTATYYCAKHYYYGGSYAMDYWGQGTTVTVSS VL: DIQMTQSPSSLSASVGDRVTITCRASQDISKYLNWYQQKPGGAVKLLIYHTSRLHSGVPSRFSGSGSGTDYTLTISSLQPEDFATYYCQQGNTLPYTFGGGTKVEIKR | 4% | 10% | 60% | 1.52 nM | 34700 MFI | 0.1 OD450 | 0.1 OD450 | 0.09 OD450 | 0.08 OD450 | 0.08 OD450 | 0.1 OD450 | 0.12 OD450 | 0.0195 nM | 1.8e-06 s⁻¹ | 92400 M⁻¹ s⁻¹ | ~0.2 nM
3 | FMC63.27-mIgG1 (antibody, V domains shown, Humanized FMC63; also called FMC63-L2H7) VH: EVTLKESGPVLVKPTETLTLTCTVSGVSLPDYGVSWIRQPPGKALEWLAVIWGSETTYYNSALKSRLTISKDNSKSQVVLTMTNMDPVDTATYYCAKHYYYGGSYAMDYWGQGTTVTVSS VL: DIQMTQSPSSLSASVGDRVTITCRASQDISKYLNWYQQKPGGAVKLLIYHTSRLHSGVPSRFSGSGSGTDYTLTISSLQPEDFATYYCQQGNTLPYTFGGGTKVEIKR | – | – | – | – | – | 0.05 OD450 | 0.05 OD450 | 0.05 OD450 | 0.05 OD450 | 0.05 OD450 | 0.05 OD450 | 0.1 OD450 | 1.81 nM | 0.000152 s⁻¹ | 84200 M⁻¹ s⁻¹ | –

From patent US20230406922A1 (SIMCERE ZAIMING PHARMACEUTICAL, published 2023)
